# Reference: patent US20110236325A1, “METHODS TO TREAT OR PREVENT A SKIN CONDITION USING A NELL1 PEPTIDE” (NellOne Therapeutics, Inc., priority 2010, published 2011)
# System: EFT-400 tissues
# Assay: Gene expression by quantitative PCR custom array in EFT-400 tissues with or without UV irradiation
# Settings: for AVG Ct ACTB (housekeeping gene) / AVG Ct AQP3 / AVG Ct BCL2L1 / AVG Ct COL1A1 / AVG Ct COL4A2 / AVG Ct COL5A1 / AVG Ct COL6A1 / AVG Ct COL6A2 / AVG Ct COL7A1 / AVG Ct COL8A1 / AVG Ct COL11A1 / AVG Ct COL12A1 / AVG Ct COL14A1 / AVG Ct COL15A1 / AVG Ct COL16A1 / AVG Ct DSG1 / AVG Ct ERCC1 / AVG Ct FN1 / AVG Ct GAPDH (housekeeping gene) / AVG Ct GDF15 / AVG Ct GSTM3 / AVG Ct HSPA8 / AVG Ct IL1A / AVG Ct IL1B / AVG Ct IL8 / AVG Ct KAL1 / AVG Ct KRT16 / AVG Ct LAMA1 / AVG Ct LAMA2 / AVG Ct LAMA3 / AVG Ct LAMA5 / AVG Ct LAMB1 / AVG Ct LAMB3 / AVG Ct LAMC1 / AVG Ct MMP1 / AVG Ct MMP2 / AVG Ct MT2A / AVG Ct PCNA / AVG Ct RPL13A (housekeeping gene) / AVG Ct SIRT1 / AVG Ct TGFBI / AVG Ct THBS3 / AVG Ct TNC / AVG Ct VTN: No UV
# Experimental: EpiDerm-FT™ (EFT-400) tissues were produced and packaged in the MatTek Corporation GMP tissue culture production laboratories following standard procedures. Packaged tissues were stored at 4° C. overnight and then re-equilibrated in EFT-400-ASY medium overnight prior to the start of experiments. The sample size was n=3 for each treatment group in the gene expression experiments; and n=6 (two independent experiments of n=3) for the sunburned cell counts.
# Total RNA was isolated from the EFT-400 tissues (RNAqueous kit, Ambion) (n=3) and utilized for gene expression analysis by quantitative PCR on an SABioscience custom array containing 42 Human Extracellular Matrix (ECM) and Adhesion Molecules RT^2 Profiler™ PCR Array, stress and toxicity genes whose expression, based on MatTek data, are known to be dramatically altered by UV-protective compounds on UV damaged skin. […] Further, there were three internal control spots on the array that corresponded to human genomic DNA contamination (HGDC), positive PCR control (PPC), and reverse transcription control (RTC).
molecule,measurement,setting,value
"Nell 1: Full-length human recombinant NELL1 protein (isoform 1, SEQ ID NO: 2), expressed in a wheat germ cell-free translation system, obtained from Abnova (protein, listed as Homo sapiens) MPMDLILVVWFCVCTARTVVGFGMDPDLQMDIVTELDLVNTTLGVAQVSGMHNASKAFLFQDIEREIHAAPHVSEKLIQLFRNKSEFTILATVQQKPSTSGVILSIRELEHSYFELESSGLRDEIRYHYIHNGKPRTEALPYRMADGQWHKVALSVSASHLLLHVDCNRIYERVIDPPDTNLPPGINLWLGQRNQKHGLFKGIIQDGKIIFMPNGYITQCPNLNHTCPTCSDFLSLVQGIMDLQELLAKMTAKLNYAETRLSQLENCHCEKTCQVSGLLYRDQDSWVDGDHCRNCTCKSGAVECRRMSCPPLNCSPDSLPVHIAGQCCKVCRPKCIYGGKVLAEGQRILTKSCRECRGGVLVKITEMCPPLNCSEKDHILPENQCCRVCRGHNFCAEGPKCGENSECKNWNTKATCECKSGYISVQGDSAYCEDIDECAAKMHYCHANTVCVNLPGLYRCDCVPGYIRVDDFSCTEHDECGSGQHNCDENAICTNTVQGHSCTCKPGYVGNGTICRAFCEEGCRYGGTCVAPNKCVCPSGFTGSHCEKDIDECSEGIIECHNHSRCVNLPGWYHCECRSGFHDDGTYSLSGESCIDIDECALRTHTCWNDSACINLAGGFDCLCPSGPSCSGDCPHEGGLKHNGQVWTLKEDRCSVCSCKDGKIFCRRTACDCQNPSADLFCCPECDTRVTSQCLDQNGHKLYRSGDNWTHSCQQCRCLEGEVDCWPLTCPNLSCEYTAILEGECCPRCVSDPCLADNITYDIRKTCLDSYGVSRLSGSVWTMAGSPCTTCKCKNGRVCCSVDFECLQNN","activity in producing the observed effects (sunburned cells, gene expression)","NELL1 protein at 100 ng/ml, genistein at 50 μM",most active in producing the observed effects
same,AVG Ct ACTB (housekeeping gene),100 ng/ml Nell 1,18
same,AVG Ct AQP3,100 ng/ml Nell 1,23.05
same,AVG Ct BCL2L1,100 ng/ml Nell 1,24.03
same,AVG Ct COL1A1,100 ng/ml Nell 1,17.82
same,AVG Ct COL4A2,100 ng/ml Nell 1,22.01
same,AVG Ct COL5A1,100 ng/ml Nell 1,22.36
same,AVG Ct COL6A1,100 ng/ml Nell 1,18.82
same,AVG Ct COL6A2,100 ng/ml Nell 1,19.33
same,AVG Ct COL7A1,100 ng/ml Nell 1,25.75
same,AVG Ct COL8A1,100 ng/ml Nell 1,27.28
same,AVG Ct COL11A1,100 ng/ml Nell 1,26.77
same,AVG Ct COL12A1,100 ng/ml Nell 1,24.14
same,AVG Ct COL14A1,100 ng/ml Nell 1,25.88
same,AVG Ct COL15A1,100 ng/ml Nell 1,24.72
same,AVG Ct COL16A1,100 ng/ml Nell 1,23.78
same,AVG Ct DSG1,100 ng/ml Nell 1,20.11
same,AVG Ct ERCC1,100 ng/ml Nell 1,23.72
same,AVG Ct FN1,100 ng/ml Nell 1,20.04
same,AVG Ct GAPDH (housekeeping gene),100 ng/ml Nell 1,17.83
same,AVG Ct GDF15,100 ng/ml Nell 1,23.37
same,AVG Ct GSTM3,100 ng/ml Nell 1,29.11
same,AVG Ct HSPA8,100 ng/ml Nell 1,19.83
same,AVG Ct IL1A,100 ng/ml Nell 1,25.17
same,AVG Ct IL1B,100 ng/ml Nell 1,28.25
same,AVG Ct IL8,100 ng/ml Nell 1,20.41
same,AVG Ct KAL1,100 ng/ml Nell 1,31.6
same,AVG Ct KRT16,100 ng/ml Nell 1,16.15
same,AVG Ct LAMA1,100 ng/ml Nell 1,28.71
same,AVG Ct LAMA2,100 ng/ml Nell 1,24.38
same,AVG Ct LAMA3,100 ng/ml Nell 1,23.37
same,AVG Ct LAMA5,100 ng/ml Nell 1,26.73
same,AVG Ct LAMB1,100 ng/ml Nell 1,22.69
same,AVG Ct LAMB3,100 ng/ml Nell 1,24.73
same,AVG Ct LAMC1,100 ng/ml Nell 1,22.76
same,AVG Ct MMP1,100 ng/ml Nell 1,20.04
same,AVG Ct MMP2,100 ng/ml Nell 1,18.98
same,AVG Ct MT2A,100 ng/ml Nell 1,18.43
same,AVG Ct PCNA,100 ng/ml Nell 1,23.56
same,AVG Ct RPL13A (housekeeping gene),100 ng/ml Nell 1,20.37
same,AVG Ct SIRT1,100 ng/ml Nell 1,25.93
same,AVG Ct TGFBI,100 ng/ml Nell 1,21.73
same,AVG Ct THBS3,100 ng/ml Nell 1,28.69
same,AVG Ct TNC,100 ng/ml Nell 1,21.22
same,AVG Ct VTN,100 ng/ml Nell 1,32.48
same,AVG Ct ACTB (housekeeping gene),150 ng/ml Nell 1,18.54
same,AVG Ct AQP3,150 ng/ml Nell 1,23.74
same,AVG Ct BCL2L1,150 ng/ml Nell 1,24.48
same,AVG Ct COL1A1,150 ng/ml Nell 1,18.8
same,AVG Ct COL4A2,150 ng/ml Nell 1,22.92
same,AVG Ct COL5A1,150 ng/ml Nell 1,23.36
same,AVG Ct COL6A1,150 ng/ml Nell 1,19.6
same,AVG Ct COL6A2,150 ng/ml Nell 1,20.05
same,AVG Ct COL7A1,150 ng/ml Nell 1,26.73
same,AVG Ct COL8A1,150 ng/ml Nell 1,28.22
same,AVG Ct COL11A1,150 ng/ml Nell 1,27.51
same,AVG Ct COL12A1,150 ng/ml Nell 1,25
same,AVG Ct COL14A1,150 ng/ml Nell 1,26.52
same,AVG Ct COL15A1,150 ng/ml Nell 1,25.35
same,AVG Ct COL16A1,150 ng/ml Nell 1,24.55
same,AVG Ct DSG1,150 ng/ml Nell 1,20.36
same,AVG Ct ERCC1,150 ng/ml Nell 1,24.07
same,AVG Ct FN1,150 ng/ml Nell 1,20.71
same,AVG Ct GAPDH (housekeeping gene),150 ng/ml Nell 1,18.02
same,AVG Ct GDF15,150 ng/ml Nell 1,23.97
same,AVG Ct GSTM3,150 ng/ml Nell 1,29.74
same,AVG Ct HSPA8,150 ng/ml Nell 1,20.36
same,AVG Ct IL1A,150 ng/ml Nell 1,25.55
same,AVG Ct IL1B,150 ng/ml Nell 1,29.2
same,AVG Ct IL8,150 ng/ml Nell 1,21.04
same,AVG Ct KAL1,150 ng/ml Nell 1,33.03
same,AVG Ct KRT16,150 ng/ml Nell 1,16.49
same,AVG Ct LAMA1,150 ng/ml Nell 1,29.76
same,AVG Ct LAMA2,150 ng/ml Nell 1,25.3
same,AVG Ct LAMA3,150 ng/ml Nell 1,24.15
same,AVG Ct LAMA5,150 ng/ml Nell 1,27.41
same,AVG Ct LAMB1,150 ng/ml Nell 1,23.44
same,AVG Ct LAMB3,150 ng/ml Nell 1,25.42
same,AVG Ct LAMC1,150 ng/ml Nell 1,23.62
same,AVG Ct MMP1,150 ng/ml Nell 1,20.75
same,AVG Ct MMP2,150 ng/ml Nell 1,19.62
same,AVG Ct MT2A,150 ng/ml Nell 1,18.83
same,AVG Ct PCNA,150 ng/ml Nell 1,24.11
same,AVG Ct RPL13A (housekeeping gene),150 ng/ml Nell 1,20.81
same,AVG Ct SIRT1,150 ng/ml Nell 1,26.67
same,AVG Ct TGFBI,150 ng/ml Nell 1,22.16
same,AVG Ct THBS3,150 ng/ml Nell 1,29.23
same,AVG Ct TNC,150 ng/ml Nell 1,22.04
same,AVG Ct VTN,150 ng/ml Nell 1,32.57
same,expression of IL-1β elevated after UV exposure,UV-irradiated,decrease in the expression
same,expression of IL-8 elevated after UV exposure,UV-irradiated,decrease in the expression
same,expression of MMP-1 elevated after UV exposure,UV-irradiated,decrease in the expression
same,levels of AQP3 RNA after UV exposure,UV-irradiated,increased these levels further
same,UV-elevated levels of AQP3,"UV-irradiated, 100 ng/ml",further increased the UV-elevated levels of AQP3
same,UV-induced increase in IL-1β RNA level,"UV-irradiated, 100 ng/ml",slightly modulated the increases
same,UV-induced increase in IL-8 RNA level,"UV-irradiated, 100 ng/ml",slightly modulated the increases
same,UV-induced increase in MMP-1 RNA level,"UV-irradiated, 100 ng/ml",slightly modulated the increases
